This passage reports Kd and ratio to parent results from paper PMC7067772, “Digenic inheritance of mutations in EPHA2 and SLC26A4 in Pendred syndrome” (Nature Communications, 2020).

The target in one test is ephrin-B2 (Homo sapiens) (UniProt P52799). The note with it: cited from earlier work.
The next test addresses ephrin-A4 (Homo sapiens) (UniProt P52798). The note with it: cited from earlier work.
Another test addresses ephrin-A5 (Homo sapiens) (UniProt P52803). The note with it: cited from earlier work.
For test [1], the target named is V5-EphA2 (pcDNA3.2-V5-EphA2) (UniProt P29317). As to the kind of experiment: co-immunoprecipitation with densitometric quantification. As to conditions: n = 3; parent: est. 1.0; read off a plot.
Test [2] deals with T1, fc-fusion protein of the EphA2 extracellular domain (UniProt P29317 24-537).
T1 construct: EphA2 extracellular domain; Detected in the ELISA with biotinylated 1F7 mAb; also called EphA2 Fc
As to the kind of experiment: ELISA; plates coated with ephrin-A5 Fc or ephrin-B2 Fc (3 μg/ml, 50 mM carbonate buffer pH 9.5, overnight at 4 °C); diluted EphA2 Fc analyte 1 h at room temperature; detection with biotinylated 1F7 mAb and UltraStreptavidin-HRP, OD492 nm (the results say that the EphA2 Fc was immobilised). The note with it: both partners purified. In general terms: ELISA stands for enzyme-linked immunosorbent assay.

T1 sequence (P29317 24-537): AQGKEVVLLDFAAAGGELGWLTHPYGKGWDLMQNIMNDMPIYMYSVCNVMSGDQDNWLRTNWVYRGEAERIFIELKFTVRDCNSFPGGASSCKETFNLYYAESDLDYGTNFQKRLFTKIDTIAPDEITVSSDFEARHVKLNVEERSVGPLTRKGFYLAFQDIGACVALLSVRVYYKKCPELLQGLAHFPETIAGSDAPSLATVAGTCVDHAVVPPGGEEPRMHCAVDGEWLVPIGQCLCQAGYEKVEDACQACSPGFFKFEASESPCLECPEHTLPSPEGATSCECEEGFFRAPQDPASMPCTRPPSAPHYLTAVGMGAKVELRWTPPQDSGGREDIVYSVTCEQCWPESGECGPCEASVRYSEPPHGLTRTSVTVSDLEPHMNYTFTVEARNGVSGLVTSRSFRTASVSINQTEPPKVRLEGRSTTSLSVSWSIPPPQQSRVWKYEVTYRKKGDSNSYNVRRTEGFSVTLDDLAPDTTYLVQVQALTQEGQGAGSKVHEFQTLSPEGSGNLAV
Sequence of V5-EphA2 (pcDNA3.2-V5-EphA2) (P29317 24-976): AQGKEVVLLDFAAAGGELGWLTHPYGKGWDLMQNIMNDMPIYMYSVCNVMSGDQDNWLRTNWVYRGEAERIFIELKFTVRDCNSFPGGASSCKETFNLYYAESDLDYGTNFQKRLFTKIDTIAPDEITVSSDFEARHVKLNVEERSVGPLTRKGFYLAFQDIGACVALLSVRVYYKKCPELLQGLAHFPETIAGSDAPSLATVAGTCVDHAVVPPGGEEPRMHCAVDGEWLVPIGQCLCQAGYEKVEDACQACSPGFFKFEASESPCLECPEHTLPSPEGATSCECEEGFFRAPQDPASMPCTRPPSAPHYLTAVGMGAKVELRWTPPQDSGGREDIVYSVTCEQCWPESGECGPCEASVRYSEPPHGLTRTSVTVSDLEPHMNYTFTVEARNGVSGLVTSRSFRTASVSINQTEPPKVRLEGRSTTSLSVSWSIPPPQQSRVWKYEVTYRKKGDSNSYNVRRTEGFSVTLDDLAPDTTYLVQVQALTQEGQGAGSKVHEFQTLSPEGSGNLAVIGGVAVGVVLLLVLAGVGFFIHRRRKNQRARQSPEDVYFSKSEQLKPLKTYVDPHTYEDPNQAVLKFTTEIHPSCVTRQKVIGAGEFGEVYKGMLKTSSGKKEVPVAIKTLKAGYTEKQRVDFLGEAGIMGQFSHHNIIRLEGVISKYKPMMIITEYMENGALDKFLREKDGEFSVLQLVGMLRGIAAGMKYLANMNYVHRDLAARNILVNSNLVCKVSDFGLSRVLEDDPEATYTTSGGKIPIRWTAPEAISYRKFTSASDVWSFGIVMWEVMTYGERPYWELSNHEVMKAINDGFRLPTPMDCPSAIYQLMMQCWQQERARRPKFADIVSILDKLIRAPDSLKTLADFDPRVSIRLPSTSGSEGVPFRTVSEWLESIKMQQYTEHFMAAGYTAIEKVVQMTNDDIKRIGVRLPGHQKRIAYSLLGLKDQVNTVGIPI
Sequence of ephrin-A4 (Homo sapiens) (P52798 26-170): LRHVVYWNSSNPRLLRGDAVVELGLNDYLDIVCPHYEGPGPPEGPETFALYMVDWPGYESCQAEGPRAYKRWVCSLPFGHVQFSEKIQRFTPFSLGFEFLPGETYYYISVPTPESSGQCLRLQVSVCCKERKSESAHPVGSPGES

The Kd is the concentration at which binding is half-saturated. As to EphA4 (from UniProt P54764), the Kd is 10800 nM with ephrin-B2 (Homo sapiens), 36 nM with ephrin-A4 (Homo sapiens) and 360 nM in the test with ephrin-A5 (Homo sapiens).

On to “myc-tagged pendrin (pCMV-Myc-pendrin) (from UniProt O43511) F355L”, for which, in test [1], the ratio to parent turned out to be 0.98.

B1: ephrin-A5 Fc fusion protein (Fc fusion, UniProt P52803 21-203, looked up)
chain: QDPGSKAVADRYAVYWNSSNPRFQRGDYHIDVCINDYLDVFCPHYEDSVPEDKTERYVLYMVNFDGYSACDHTSKGFKRWECNRPHSPNGPLKFSEKFQLFTPFSLGFEFRPGREYFYISSAIPDNGRRSCLKLKVFVRPTNSCMKTIGVHDRVFDVNDKVENSLEPADDTVHESAEPSRGEN
notes: ephrin-A5
With B1, the dissociation constant Kd in test [2] is 2 nM.

B2: soluble ephrin-B2 extracellular domain-Fc fusion protein (Fc fusion, UniProt P52799 28-229, looked up)
chain: IVLEPIYWNSSNSKFLPGQGLVLYPQIGDKLDIICPKVDSKTVGQYEYYKVYMVDKDQADRCTIKKENTPLLNCAKPDQDIKFTIKFQEFSPNLWGLEFQKNKDYYIISTSNGSLEGLDNQEGGVCQTRAMKILMKVGQDASSAGSTRNKDPTRRPELEAGTNGRSSTTSPFVKPNPGSSTDGNSAGHSGNNILGSEVALFA
notes: ephrin-B2 extracellular domain; also called ephrin-B2-Fc; ephrin-B2 Fc chimera protein
As for B2, in test [2], binding was put at a Kd of 85 nM.
